Results reported in patent US20160030526A1.

Assays:
[1] = target: human CD25 (human IL-2 receptor) on human CD25+ T-cell lymphoma cells HUT 102/6TG (human) (UniProt P01589); experiment: cell-based or functional assay
[2] = target: human CD25 (human IL-2 receptor) on human CD25+ T-cell lymphoma cells HUT 102/6TG (human) (UniProt P01589)
[3] = target: human CD25 (human IL-2 receptor) on human CD25+ T-cell lymphoma cells HUT 102/6TG (human) (UniProt P01589); experiment: flow cytometry on HUT 102/6TG cells

Sequence of human CD25 (human IL-2 receptor) on human CD25+ T-cell lymphoma cells HUT 102/6TG (human) (P01589 22-272): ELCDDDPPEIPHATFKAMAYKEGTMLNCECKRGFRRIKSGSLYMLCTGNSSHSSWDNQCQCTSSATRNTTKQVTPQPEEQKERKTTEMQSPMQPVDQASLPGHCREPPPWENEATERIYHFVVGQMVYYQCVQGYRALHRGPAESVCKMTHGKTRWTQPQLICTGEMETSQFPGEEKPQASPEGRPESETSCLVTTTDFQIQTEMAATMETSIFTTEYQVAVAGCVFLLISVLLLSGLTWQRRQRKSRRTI

Substance	IC50 of protein synthesis inhibition (3H-leucine) in HUT 102/6TG cells [1]	Kd [2]	affinity against the monovalent isoform (DT390-hIL-2) [3]
monovalent human IL-2 fusion toxin (DT390-hIL-2-6xHis)	0.02 nM		
monovalent human IL-2 fusion toxin (DT390-hIL-2-6xHis) (other; other documents disagree on this pair)		15.9 nM	
bivalent human IL-2 fusion toxin (DT390-bi-hIL-2-6xHis)	0.0002 nM		
bivalent human IL-2 fusion toxin (DT390-bi-hIL-2-6xHis) (other; other documents disagree on this pair)		0.21 nM	2 logs
